Experiment [1] deals with CD112 on MDA-MB-231-Luc-GFP and MDA-MB-231-CD155(-)-Luc-GFP cells (human) (UniProt Q92692). In words: flow cytometry of MDA-MB-231-Luc-GFP cells stained with the antibody, control incubated with PBS. A general note: In flow cytometry, cells or beads pass a laser one at a time.
For experiment [2], the target named is CD112 (labelled CD112 molecule / CD112 antigen of Example 2) (UniProt Q92692). In words: flow cytometry, labelled CD112 on CAR-CHO cells; MFI of CD112-positive cells / MFI of TIGIT-positive cells.
For experiment [3], the target named is T1, CD155 (labelled CD155 molecule / CD155 antigen of Example 2) (UniProt P15151).
T1 sequence (labelled for flow cytometry, label not stated, looked up): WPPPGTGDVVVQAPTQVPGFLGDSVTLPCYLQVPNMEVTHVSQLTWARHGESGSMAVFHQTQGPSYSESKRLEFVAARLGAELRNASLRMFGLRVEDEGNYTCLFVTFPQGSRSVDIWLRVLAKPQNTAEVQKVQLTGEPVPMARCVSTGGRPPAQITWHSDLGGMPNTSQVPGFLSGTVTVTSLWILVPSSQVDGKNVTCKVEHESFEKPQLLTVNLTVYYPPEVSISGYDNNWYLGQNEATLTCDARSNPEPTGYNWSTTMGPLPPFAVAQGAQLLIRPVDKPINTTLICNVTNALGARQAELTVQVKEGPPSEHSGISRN
In words: flow cytometry, labelled CD155 on CAR-CHO cells; MFI of CD155-positive cells / MFI of TIGIT-positive cells.

Residue numbers refer to the chain shown, from its start.

As to “CD112 (Nectin2) Monoclonal Antibody (R2.525) PE”, the MFI, fold over the control group in experiment [1] is 4 fold.

B1: CAR6 (TIGIT mutant peptide Mut6-CD28TM-28Z) (receptor)
chain: MMTGTIETTGNISAEKGGSIILQCHLSSTTAQVTQVNWEQQDQLLAIWNADLGWHISPSFKDRVAPGPGLGLTLQSLTVNDTGEYFCIYHTYPDGTYTGRIFLEVLESSVAEHGARFQIPFWVLVVVGGVLACYSLLVTVAFIIFWVRSKRSRGGHSDYMNMTPRRPGPTRKHYQPYAPPRDFAAYRSRVKFSRSADAPAYKQGQNQLYNELNLGRREEYDVLDKRRGRDPEMGGKPRRKNPQEGLYNELQKDKMAEAYSEIGMKGERRRGKGHDGLYQGLSTATKDTYDALHMQALPPR
For B1, in experiment [2], the relative MFI of CD112 (CD112/TIGIT) is 0.13. In experiment [3], this molecule gave a relative MFI of CD155 (CD155/TIGIT) of 1.34.

B2: CAR30 (wild-type TIGIT polypeptide-CD28TM-28Z) (receptor)
chain: B1 chain with W48C
Molecule B2 gave a relative MFI of CD112 (CD112/TIGIT) in experiment [2] of 0.16. The relative MFI of CD155 (CD155/TIGIT) in experiment [3] is 1.03.
